The values that follow are results of earlier work, collected in patent US9422609B2, “Methods, compositions and devices for maintaining chemical balance of chlorinated water” (priority 2006, dated 2016).

The conditions of this data set: hydrolysis of cyanuric acid.

B1: cyanuric acid amidohydrolase from strain ADP of Pseudomonas sp.: cyanuric acid amidohydrolase (EC 3.5.2.15) from strain ADP of Pseudomonas sp. (protein, UniProt P58329 1-363, looked up)
Cyanuric acid amidohydrolase: MYHIDVFRIPCHSPGDTSGLEDLIETGRVAPADIVAVMGKTEGNGCVNDYTREYATAMLAACLGRHLQLPPHEVEKRVAFVMSGGTEGVLSPHHTVFARRPAIDAHRPAGKRLTLGIAFTRDFLPEEIGRHAQITETAGAVKRAMRDAGIASIDDLHFVQVKCPLLTPAKIASARSRGCAPVTTDTYESMGYSRGASALGIALATEEVPSSMLVDESVLNDWSLSSSLASASAGIELEHNVVIAIGMSEQATSELVIAHGVMSDAIDAASVRRTIESLGIRSDDEMDRIVNVFAKAEASPDGVVRGMRHTMLSDSDINSTRHARAVTGAAIASVVGHGMVYVSGGAEHQGPAGGGPFAVIARA
The term Km denotes the concentration of substrate that gives half-maximal velocity. In general, Vmax refers to the top rate of the reaction or transport when substrate is in excess. In the case of B1, the Km is 71 µM, the maximum rate (Vmax) is 8.4 µmol/min/mg and the turnover rate is 3 reactions per second.
